# Assay: soluble on expression in E. coli; label from the status in PepcDB or PDB records
row,Sequence,soluble on expression in E. coli
1,MGSDKIHHHHHHMDAIDLKRLSDFVRHRQNEDGGFAFCKPLPSTLAETFYAVSILTSIGEDVPRREKVVEFLKSRIQTEINSLFYTLHSLNLLGEDLPDYSSFLLKRLEGLKAERKYLLSDGGVTATYTFLQPNALRDAYMISTLLHLYNRDVPEETKMLVRRYRRETEFGVGYGVKKPNLEETFYASYILRDKAVISFVKSFESNGGFAKQPGGYPPYLEDTYYATSTLSLLSQRYSNPRTAEFIASLQNANGGFRRSIHGGISTLEDSYYAVEVLRRLEFR,not soluble
2,MENTEKLKNSKEVIAYIAECFPNCFTLEGEAKPLKIGIFQDLADRLNDDPKVSKTQLRAALRQYTSSWRYLHGVKPGATRVDLDGNPCGELEEQHVEHAQAALAESKARVEARRKEQVKKVREEAKANKPKAKKPQQARRPQNAPKVEKKPVETRALAASELNVGNQVNVNMGKGNMAATIVEVNKEDVRVQLANGLQMVVKAEHLRA,not soluble
3,SNAAEHVRLATTTSTYHSGLLDYLLPQFEKDTGYKVDVIAAGTGKALKMGENGDVDLVMTHAPKAEGTFVEKGYGVLPRKLMYNDFVIVGPKADPAKIKDDESVLDVFKEIANKNATFISRGDDSGTHKKEMGFWAQTKIEPNFGGYRSVGQGMGPTLNMASEMQGYTMSDRGTWLAYQNKLDLEILFQGDEKLFNPYQVILVNPERYPTINYQGAKAFSDWLVNPRGQELINGFRL,soluble
4,MGSDKIHHHHHHMRAEIRNLNVKGGHYYLELAEKDADTDKVIASCKATIWKFSASKIVLKFERETGIELASDLNVLIKIRARFDPQYGFSVNIEEIDSSFTLGEIAKRYQQIVERLTQEGLIHKNKLLPTPFDIQNVLVIAPQNAAGLGDFKKDADALERNGVCHFVYQSATFQGNTAAVSLMESLATGLKQWANNFNFPPDLIVIIRGGGAVNDLAYLNDYELAALLCKRSVPIWVGIGHEKDRTILDEIAHRSFDTPSKVIAGIRNHIVERVQEAVDNLQTIKLLSQHQITTYQSKSDQYLQHIKSSAQAQLNSAHQFLEQIKERIQFVSQQQVKFSLSQTESLMREILLQNPKQIQAKGYAIVRSEGKAIRSIHQITNSTITVDMQDGAINANITEVIPNE,not soluble
5,MGSDKIHHHHHHMTANPTVFTFADSTDLILEIPDSTTANLDSQLFSHPYSRYQAYLNELCLSAVLPWLQEDFSTQAKVWPSATTLASLWELVNGTAVTIDGKRFILVPSENIDHSELRVQQEWVDLPTWAGDYYLAVQVDGEYVKVWGYCTHTQLKHQGKYDPGDRTYSLDITDIVNDISVLAVARDLCPDEITRTAIAPLPTIPQEQAQNLITRLSNPEIINPRLAIPFQLWGALIEHGGWRQSLYERRLGLPEQRSVLQWLQSGVSQVAQTMGWGRLNLQLSAAGARSVEERQTGVTLSRRLTIAGQLYELLITPQGEPDAPYWRFELRNAAVGAVIPGGFKLRLLTEDLQSFPNNEDIATNAVEQLYVEVALEAGEGIVWEIEPLPENYDREILKF,not soluble
6,MGSDKIHHHHHHMKRSEKKSMSSALKNGIMERTQPEKVVQMQGTADLSTSKLGTKKYWDELYALELENFRRNPQDTGDCWFSDSDAEQKMIDFLVDNIGAYRISENASVVDLGTGNGHMLFELHQTEFQGKLVGIDYSEESVKLASNIAEATGVDNFISFQQADIFSGDWKPGKYDIVLDKGTLDAISLSGMKINGKLDVVDVYAGVVERILKKDGIFLITSCNFTQDELVKIIETDNLKMWKTIKYPVFQFGGVQGATICSVAFVKQN,not soluble
7,MRHMMQLKAPFFSDNATDLPFWWEEARPSPVQTDDLPSSTEVAIIGAGFTGLNAALVLARAGKQVSVFDADEPGYGASSRNGGFLGPGWAFFDTGMQYGADTARQIVEESFHSLQHVKDVVAMEKIDCDLKEVGYFKGAMTPRVYDAIGRNMDRIRKIIPCNVYMVPRSEQHKEIGSDLYHGGVAMPGYCGIHPAKYVKGLAEAANRLGVKIYSNARVSDLEGKNGGFSFKVGSRTIAARQILLAANGYSGSLLPHLKRRIIPVGSGLIATEQLPVEVMDRLMPKRQMLAGSQRVVTYYRPSPDNTRIVFGGRVLNMSGAHESAVANAKYIRSLLLAVFPELASAKITNYWHGQLGFTFDHLPHVQTIDGMYFAGGYNGTGVARASWLGSRVAYEMLGSDLGKTVYRNLPFDGRRFYNGKPYFLPLAVWYYGMLDKWDQRLEHHHHHH,not soluble
8,MYLTKEEELALSGEYGPAIQKAMEILVALGDIYNADRLIPIKSAQIAGVSYKNIGDEGIEFLRDFVEAGAKVSVYTTLNPAGIGDEDFMEKQAEIIELYRKMGVEITSTCTPYYGPNLPKYGDHLAWSESSAVIFANSVLGARTNREGGPSSLAAAIVGKTPNYGLHLEENRKATHIIEVKDKLKSRTEYSLLGYKIGEIVENGVPYIRGIAPTTEDLKALGASMAASGGVGLYHVEGSTPEWRGAIVDKIEKIEIGRKDLEDVRQRFSVDWGDVDIILLGCPHASLREIKEIAELLRMRDKPLKIPLFITVSRGIKALADYLGYTEIIERYNGKLLPDVCLVVSPIKEWYSGVATDSGKAAFYLKSFGLKVLLDTTENIIMGAPLEHHHHHH,not soluble
9,MTTSSHGLEKAMELAKFSKSQKERAREILEAGLLEATYGHLAPSSNFVGGMCVGNVSPGGEPVNLNAKVTGYLPKIKEMAEKHGVAQYVGILAAQMMQESQGEGNDPMQAAEGHYGDLSSSCIGLKGSARIGCIKDPNISIEAGVQEFKDVLAKANGDIALALQSYNYGPGFISYALAKGGYSEETAIAFSREHAGENPAGCSDPNNFRTKVGACYGDFTYVSKILKYYKDLGCVTAGDGEWISDKGWKWPTKSGRITDTFDAVRNGKQHNAVDIGAMTAGKPGDPVWSMEAGVVTAQTGYVNYGGLGVYIDHGNGIVSRYLHLSKISVTPGTMVTKGQIIGEMGGSNYVGGVLNMLGYAVHLDFQIRINDQPTDPMKFFKKNDDPGLSSGGSPTMTNAKRQKVLEEAKKWLGQGKVRYVLGDRNPPGGTSDCSGFTQYVFRTSIGVQLGDWTGAQVGQGKQVPDINHAQPGDLIFYENPGHVAIYMGNQKMIHIGDNKGVQITGLNYTARGQHMTQIRNVID,not soluble
10,MNRGLDPMHVGNARYVKNDDLPKTVPVFPLPGALLLPEGHLPLNIFEPRYLAMIDTALASHRLIGMVQPALHVIEAGIEGGPLSAVGCLGRITSFSETGDGRYVISLTGVCRFRLLEEVAGSEPYRSFRHAPFGADLSGEYDEEAVDRENLLRVFRAFLDANQLEADWESVERAGNRVLVNSLSMMSPFGPAEKQALLEAPDLKTRAETLIAITEIVLAQGSGEGGTVLQLEHHHHHH,not soluble
11,MSEEIKKIEEVAEQDKAPKVPTTEPPVDVPAPVTEEAPKVEEAVAEIAAPAAAEGETATAAAAAPEEKKKSGGVARRFTFNKRWGKHRDAEASTPKEPEAPKDPKEDVLGWIAQQIPQAVHKANYQVIDWVQKTAIPEEGERKTIPGKDQATTRNQFIGFFKDGDVLAKLANALEPGAVEVAAAEENADAAAQKEVQKKNIDAFGAWAQKTLGTEAAPVTNEDLLEKGKAGYTAVFQTLWQLGVQAKEKFDKEGFNVDTIVQLANSVVKSGLLTTILGFFRRNRQAAAAVEEPKDETAAAEGAGEAKEEGATGEVADTADEPVAVKQETSAPAAVAAN,not soluble
12,MTEVKAMTKFYDVTFQELSGRSVVKTEVASDREPFDVWQDACASYSETELNIQINEDTFVTLNRHFVVRIDVKEVDGPVDKQVRRRDELMNVVNTLSNMGL,soluble
13,MAHIIRRVSIKDVENFISMLAKIYDESPYMFYTPGEYDPSVTSASKQLEEYITSPHKVIFVAESDEQLVGFAFVNTTPFQRIKHVAKIDLGVKKLYQHRGIGQALLDAIMAWCLNNQIHRIEANVPLNNQPALELFKSADFQIEGVLKDKLFIDGKYYDDYMMAKILN,soluble
14,MEVYIPSFRHEDSDLERGYTVFKIEVLMNGRKHFVEKRYSEFHALHKKLKKCIKTPEIPSKHVRNWVPKVLEQRRQGLETYLQAVILENEELPKLFLDFLNVRHLPSLPKAESCGSFDETESEESSKLSHQPVLLFLGDPYVLPAASDFPNVVIEGVLHGIFFSHLQPR,not soluble
15,MEQSVANLVDMRDVSFTRGNRCIFDNISLTVPRGKITAIMGPSGIGKTTLLRLIGGQIAPDHGEILFDGENIPAMSRSRLYTVRKRMSMLFQSGALFTDMNVFDNVAYPLREHTQLPAPLLHSTVMMKLEAVGLRGAAKLMPSELSGGMARRAALARAIALEPDLIMFDEPFVGQDPITMGVLVKLISELNSALGVTCVVVSHDVPEVLSIADHAWILADKKIVAHGSAQALQANPDPRVRQFLDGIADGPVPFRYPAGDYHADLLPGS,not soluble
